In general, Kd refers to the concentration at which binding is half-saturated. Read a low Kd as higher affinity.

Experiment [1] concerns the target T1, BMPR1B (Mus musculus (Mouse), UniProt P36898).
T1 chain: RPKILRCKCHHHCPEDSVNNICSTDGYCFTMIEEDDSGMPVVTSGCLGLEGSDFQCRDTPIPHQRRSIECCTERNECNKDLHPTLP
The experiment is described as follows: SPR 1:1 (ligand immobilised, monomeric ECD analyte).

Experiment [2] has as its target T2, ACVR2B (Mus musculus (Mouse), UniProt P27040).
T2 chain: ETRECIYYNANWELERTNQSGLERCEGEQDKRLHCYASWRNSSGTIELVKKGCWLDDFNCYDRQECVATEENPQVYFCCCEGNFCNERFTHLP
The experiment is described as above.

B1: BMP7 (protein)
chain 1: DQRQACKKHELYVSFRDLGWQDWIIAPEGYAAYYCEGECAFPLNSYMNATNHAIVQTLVHFINPETVPKPCCAPTQLNAISVLYFDDSSNVILKKYRNMVVRACGCH
chain 2: DQRQACKKHELYVSFRDLGWQDWIIAPEGYAAYYCEGECAFPLNSYMNATNHAIVQTLVHFINPETVPKPCCAPTQLNAISVLYFDDSSNVILKKYRNMVVRACGCH
On to B1, for which the Kd is 750 nM in experiment [1] and 2500 nM in experiment [2].

B2: ActivinA (protein)
chain 1: GLECDGKVNICCKKQFFVSFKDIGWNDWIIAPSGYHANYCEGECPSHIAGTSGSSLSFHSTVINHYRMRGHSPFANLKSCCVPTKLRPMSMLYYDDGQNIIKKDIQNMIVEECGCS
chain 2: GLECDGKVNICCKKQFFVSFKDIGWNDWIIAPSGYHANYCEGECPSHIAGTSGSSLSFHSTVINHYRMRGHSPFANLKSCCVPTKLRPMSMLYYDDGQNIIKKDIQNMIVEECGCS
B2: the figures for the Kd in experiment [1] and in experiment [2] were greater than 64000 nM and 88 nM, respectively.

The values are drawn from publication PMC2749821 (2009).
